B1: anti-C1s IgG 2.1L-2.1H (antibody, V domains shown)
VH: QVQLQQSGAELARPGASVKMSCKASGYTFTSYTMHWVKQRPGQGLEWIGYINPSSGYTNYNQKFKDKATLTADKSSSTANMQLSSLTSEDSAVYYCARSDRYDGYFDYWGQGTTLTVSS
VL: DVLMTQTPLSLPVSLGDQASISCRSSQSIVHSNGDTYLEWYLQKPGQSPKLLVYKLSNRFSGVPDRFSGSGSGTDFTLKISRVEAEDLGVYYCFQGSHVPLTFGAGTKLEIK
notes: also called C1s 2.1L-2.1H
B2: anti-C1s scFv 2.3L-2.2H (scFv)
scFv: DIVMTQSPLTLTVTIGQPASISCKSSQSLLDSDGKTYLNWLLQRPGQSPKRLIYLVSKLDSGVPDRFTGSGSGTEFTLKTSRVEAEDLGVYYCWQGTHFPHFGGGTKLEIKGGGGSGGGGSGGGGSGGGGSEVKLVESGGGFVKPGGSLKLSCAASGFTFSTYGMSWVRQTPEKRLEWVASISAGGTTYYSDSVKGRFTISRDNARNILYLQMSSLRSEDTAMYYCARWLLLAYWGQGTLVTSSA
notes: scFv in E. coli whole cell lysate; also called C1s-2 3L-2H
B3: anti-BRIGHT IgG 1.2L-1.1H (antibody, V domains shown)
VH: EVKLVESGGDLVKPGGSLKLSCAASGFTFSSYGMSWVRQTPDKRLEWVATISSGGSYTYYPDSVKGRFTISRDNAKNTLYLQMSSLKSEDTAMYYCARHDYGNYVDYWGQGTTLTVSS
VL: not shown
notes: Full-length IgG with human kappa and human IgG1 constant regions (pMAZ vectors, HEK293-F); also called BRIGHT 1.2L-1.1H
B4: anti-C1s scFv 2.3L-2.3H (scFv)
scFv: DIVMTQSPLTLTVTIGQPASISCKSSQSLLDSDGKTYLNWLLQRPGQSPKRLIYLVSKLDSGVPDRFTGSGSGTEFTLKTSRVEAEDLGVYYCWQGTHFPHFGGGTKLEIKGGGGSGGGGSGGGGSGGGGSQVQLQQSGTVLARPGASVKMSCKASGYTFTSYWMHWVKQRPGQGLEWIGAIYPGNSDTSYNQKFKGKAKLTAVTSTSTAYMELSSLTNEDSAVYYCTRSDGYYYFDYWGQGTTLTVSSA
notes: scFv in E. coli whole cell lysate; also called C1s-2 3L-3H
B5: anti-C1s IgG 2.3L-2.3H (antibody, V domains shown)
VH: QVQLQQSGTVLARPGASVKMSCKASGYTFTSYWMHWVKQRPGQGLEWIGAIYPGNSDTSYNQKFKGKAKLTAVTSTSTAYMELSSLTNEDSAVYYCTRSDGYYYFDYWGQGTTLTVSS
VL: not shown
notes: Full-length IgG with human kappa and human IgG1 constant regions (pMAZ vectors, HEK293-F); also called C1s 2.3L-2.3H
B6: anti-C1s scFv 2.2L-2.2H (scFv)
scFv: DIVMTQSPASLAVSLGQRATISCRASESVDSYGNSFMHWYQQKPGQPPKLLIYRASNLESGIPARFSGSGSRTDFTLTINPVEADDVTTYYCQQSNEDPWTFGGGTKLEIKGGGGSGGGGSGGGGSGGGGSEVKLVESGGGFVKPGGSLKLSCAASGFTFSTYGMSWVRQTPEKRLEWVASISAGGTTYYSDSVKGRFTISRDNARNILYLQMSSLRSEDTAMYYCARWLLLAYWGQGTLVTSSA
notes: scFv in E. coli whole cell lysate; also called C1s-2 2L-2H
B7: anti-C1s IgG 2.3L-2.2H (antibody, V domains shown)
VH: EVKLVESGGGFVKPGGSLKLSCAASGFTFSTYGMSWVRQTPEKRLEWVASISAGGTTYYSDSVKGRFTISRDNARNILYLQMSSLRSEDTAMYYCARWLLLAYWGQGTLVTSSA
VL: not shown
notes: Full-length IgG with human kappa and human IgG1 constant regions (pMAZ vectors, HEK293-F); also called C1s 2.3L-2.2H; 2.3L-2.2H (IgG)
B8: anti-C1s IgG 2.2L-2.2H (antibody, V domains shown)
VH: B7 VH
VL: DIVMTQSPASLAVSLGQRATISCRASESVDSYGNSFMHWYQQKPGQPPKLLIYRASNLESGIPARFSGSGSRTDFTLTINPVEADDVTTYYCQQSNEDPWTFGGGTKLEIK
notes: Full-length IgG made in HEK 293F cells; also called C1s 2.2L with 2.2H

Columns and labels:
[1] = target: T1, human complement protein C1s (human, UniProt P09871 16-688); assay: ELISA, antigen-coated plate, titration of purified IgG, anti-human Fc-HRP
T1 construct: Purified protein, bought; coated on ELISA plates, amine-coupled to a CM5 chip, or native in human serum (immunoprecipitation); also called human complement serine protease
T1 sequence (looked up): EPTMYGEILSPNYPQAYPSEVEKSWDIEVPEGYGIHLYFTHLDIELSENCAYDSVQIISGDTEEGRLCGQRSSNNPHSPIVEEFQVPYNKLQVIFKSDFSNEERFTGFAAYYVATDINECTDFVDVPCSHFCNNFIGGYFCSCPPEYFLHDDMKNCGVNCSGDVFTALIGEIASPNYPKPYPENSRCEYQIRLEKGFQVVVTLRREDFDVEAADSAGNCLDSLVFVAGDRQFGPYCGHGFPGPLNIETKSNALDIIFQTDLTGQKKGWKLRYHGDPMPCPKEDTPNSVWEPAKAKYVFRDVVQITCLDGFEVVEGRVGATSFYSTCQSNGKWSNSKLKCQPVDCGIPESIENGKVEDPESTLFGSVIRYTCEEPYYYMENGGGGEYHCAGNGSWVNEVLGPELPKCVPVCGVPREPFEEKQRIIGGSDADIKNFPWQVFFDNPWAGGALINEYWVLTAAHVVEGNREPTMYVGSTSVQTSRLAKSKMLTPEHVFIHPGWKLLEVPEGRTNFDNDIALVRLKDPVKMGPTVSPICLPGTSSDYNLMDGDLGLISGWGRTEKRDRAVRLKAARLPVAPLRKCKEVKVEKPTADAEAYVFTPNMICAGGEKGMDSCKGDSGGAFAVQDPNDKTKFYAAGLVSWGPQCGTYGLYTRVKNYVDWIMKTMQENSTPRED
Protocol: (§1) Purified IgGs were added to the plate at various concentrations for 1.5 h and washed with PBS/0.05% Tween-20. A polyclonal antibody of goat anti-human Fc region conjugated HRP was used for detection and developed with TMB substrate and stopped with 2N H₂SO₄. The absorbance was measured at 450 nm with a 96 well spectrophotometer. A titration curve of purified IgGs was used to determine an approximate IC50 for binding (Table 8).

[2] = target: T1, human complement protein C1s; assay: ELISA, E. coli whole cell lysate with scFv from combinatorial library
[3] = target: T2, human B cell regulator of IgH transcription (BRIGHT) (human, UniProt Q99856 1-593, limits assumed); assay: ELISA, antigen-coated plate, titration of purified IgG, anti-human Fc-HRP
T2 construct: Recombinant, made in bacteria
T2 sequence (looked up): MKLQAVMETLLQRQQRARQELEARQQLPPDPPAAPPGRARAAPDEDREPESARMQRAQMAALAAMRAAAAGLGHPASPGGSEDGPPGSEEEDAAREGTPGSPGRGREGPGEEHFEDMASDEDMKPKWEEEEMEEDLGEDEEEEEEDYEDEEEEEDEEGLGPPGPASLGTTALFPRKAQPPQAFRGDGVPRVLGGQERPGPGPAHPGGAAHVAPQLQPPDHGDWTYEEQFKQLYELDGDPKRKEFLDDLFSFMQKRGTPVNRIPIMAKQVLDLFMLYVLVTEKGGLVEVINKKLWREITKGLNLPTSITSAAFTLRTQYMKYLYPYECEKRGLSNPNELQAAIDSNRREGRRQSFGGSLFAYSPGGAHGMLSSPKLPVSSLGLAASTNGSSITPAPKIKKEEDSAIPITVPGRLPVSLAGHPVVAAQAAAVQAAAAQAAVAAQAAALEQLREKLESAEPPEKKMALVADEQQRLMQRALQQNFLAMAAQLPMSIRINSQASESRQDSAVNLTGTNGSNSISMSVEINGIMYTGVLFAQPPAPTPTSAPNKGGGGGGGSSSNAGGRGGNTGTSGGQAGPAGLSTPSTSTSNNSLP
Protocol: as §1

[4] = target: T1, human complement protein C1s; assay: SPR (BIAcore 3000), C1s amine-coupled to CM5 chip, antibody injected, bivalent model
Protocol: FIGS. 13A-13B. Kinetic binding analysis of purified anti-C1s IgGs by Surface Plasmon Resonance (Biacore). (FIG. 13A) Anti-C1s 2.1L-2.1HB was injected onto a chip with immobilized C1s at 25 nM, 50 nM, 100 nM or 200 nM and (FIG. 13B) As above for anti-C1s 2.3L-2.2H injected at 2.625 nM, 5.25 nM, 10.5 nM or 21 nM.
(§2) Surface Plasmon Resonance (Biacore) C1s was covalently immobilized on a CM5 chip (GE healthcare, NJ) at a level of approximately 200 response units via standard amine coupling chemistry as described in the manufacturer's protocol. BSA was similarly coupled for baseline correction. All kinetic analyses were performed at 25° C. in HBS-EP (10 mM HEPES, 150 mM NaCl, 50 μM EDTA, 0.005% P-20, pH 7.4) on a BIAcore 3000 (GE healthcare, NJ). Antibodies were injected over immobilized antigen at a flow rate of 50 μl/min or 100 μl/min and the chip was regenerated with a single 10s injection of 20 mM NaOH. Each sensogram was run in duplicate. Kinetic and equilibrium constants were determined by global fitting to a bivalent model using BIAevaluation software (GE healthcare, NJ).

[5] = target: T1, human complement protein C1s; assay: SPR (Biacore), IgG on immobilized C1s
From the text: Antibodies were recombinantly expressed and purified as monomeric scFv fragments in E. coli and as full-length IgG antibodies in HEK 293F cells. […] Furthermore, the antibodies were suitable for functional assays, such as sandwich ELISA and immunoprecipitation of C1s from human serum (FIGS. 14-15).
as §2

| Binder | EC50 (half-maximal binding) [1] [nM] | ELISA Signal (OD450 on antigen-coated wells relative to BSA-coated wells) [2] [fold over BSA wells] | other results |
| --- | --- | --- | --- |
| B1 | 50 | – | – |
| B2 | – | 4.22 | – |
| B3 | – | – | EC50 (half-maximal binding) [3]: 1000 nM |
| B4 | – | 8.8 | – |
| B5 | 100 | – | – |
| B6 | – | 3.1 | – |
| B7 | 0.43 | – | Kd [4]: 0.43 nM; koff [4]: 0.00019 s⁻¹; kon [4]: 450000 M⁻¹ s⁻¹ |
| B8 | – | – | Kd [5]: ~500 nM |

From US20110312505A1 (University of Texas, published 2011)
